Reference: the domain aggregation screens of Martell et al. (2025)

assay: soluble fraction after stress (log2 fold change); higher = more stays soluble; pooled small domains, quantitative proteomics; settings: stress: 75 degC
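Further: 20 min heating vs room temperature control held 20 min.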

Sequence | soluble fraction (log2)
HMQATETFSLIVPMSSAGNRLDVVLSELLPNFSRKKIQDAIKNGDATLNGKAPKIRDKVYGGENITITLIL | -2.55
HMQAVDPLELRAGDFVVHEQHGIGRYVEMVQRTIGGITREYLVIEYAPAKRGQPNDRVFVPTDTLEQVS | -0.654
HMQAVKQIKVERGMTLEKIAQSEFGDSTRWGEIVEVNNLRAPYISDDPTETRDGVLKPGSNLLIPIP | -0.0397
HMQDEAQLSMSNKYIFEGNSIVKDNFIEAEKKYRLGVSAKPNNAVGSYNLANAYYNSKLYDEAMLRLL | 0.379
HMQDEREEIAVEDVVGMPLWQARKVIADQGFRVLDDGAGDIVIAQMPSGGGKLIEGGQVMLYTYTD | 0.687
HMQDFEEILKNAKIEDFKHTQTGEDLKVLKIEDKIEDFKGFNAYLVKNQIAYYSKFARGFVVKNIEKLQGV | 0.202
HMQDFEQNLFDGKSIYDRMLSKFSLHNVDVKQLVAHFKRKDTEQFFADIGRGLITSAQMLGFLQT | -0.0166
HMQDLVAVPALTGLTENDAINKAKANNLIAVVSEYKTENSVEPGKVLEQDPESSTEVKKGTIIKLVVS | 0.756
HMQDQVTLIVQVNGKLRGQISISTDATKELIEQTALANENVQKFVDGQSIKKIIIVPGRLVNIV | -0.939
HMQDRDKNVPAGKELLDNEIARLNMSLKQVEQFALPRYNLKTLEDLYSGIGSGDIRLNHLINFLQSKLI | 0.338
HMQDREIHIHAGREVLEKELSRLSLHLKNTNLQEYAARFNVKTAEDILAGIGAGDIRPAHVVNLIADKL | -0.0928
HMQDSSGENNPQSKLTQQQVDLLMKDLKETNVEFDKLAEKYNVSIKTIRNVNTGIAWRKNDITYPIREP | -0.407
HMQDTQAEEGETLLDALRRIHPESSTGTLRRMLTQGRVQLDGDSVHAAKTVLSAGQRVEVVAR | -0.143
HMQDTTLTSQILRVPSSVNINDLANVLKSLAGKNTVVAPYKAANTIIITGYAPNVRRVLSLANELIPRLDV | -1.18
HMQEAGLITQRIREMREKENWTQEYMAEQLGMSENGYAKIERGESNLSLKRLQQIADIFEVESAELLK | 0.00448
HMQEDKSKYLFQRGTAITVLRPAGIVRIGKERVDAVSNGSYIDRGVAVRVIEVEGTRVVVEPVPE | 0.0187
HMQEEMIRGDIKLNTVMQTVHLAVGTETERNWQPVETTAKEFELLKLLMENPGVTLKKEYLFHMLI | -0.101
HMQEESISWKEFLELDIIGDKKKRLKVYDLFHLGYGNAKTLFKRLNMVGISREMIEKELENEGY | -1.39
HMQEKIREVANRIRELRESLEVSPEEMADHLKVTIGTYIEYERGEADIPASVLFGIAHRLNVDMAVLL | -1.36
HMQEKLELIIPVSSIGKRADVAIQDLLSSYSRAKIQEWIKSGFILLESKKISPKDIFMGGERVFIDIQQDE | -1.86
HMQELVPGKVFEGTVTEMKNGQVTLGLSDGKTISARMEQGVSLAKGQPMLFEVKSNTGEQIAIRPVVL | 0.263
HMQENKVLEGKVLEKKKKKVFVDLSPFGVGVIRGVNYLEAKNELKDIEEGDNIKVRVLEIDNENGFIELAL | -0.121
HMQERQREGFVQQLRGKYSGQVVMRLFPELQGKALGEFMRKFEAQWEDHEAVLAAMEAHEIESRLKVFK | -1.57
HMQETALANFETNEGVQKVKQYVQENVPSLRGSNIVGVWTSYTPEGLTNYRTRFLTQDGQFVEVNLAYQ | -0.203
HMQETIDVAALRVGMFVHLDLGWLAHPFPLSSFRISSEDQISTIRALGLKRVRWSSQHSELG | -1.29
HMQETKDEGAQVLLNKINALVAAVQGQIITPEEAAIKLATDGDLDLDVDARVAAIEEFNKKLSEAQNN | 0.101

Sequence | soluble fraction (log2)
HMQEVILEKIQLTYLSADKLSKMAEQFSIPVKMYWVDENPMMLMVMGNESDIATFKKVLTQIDIPENKS | -0.268
HMQFHQDNYALEFIRDLQPVDGAIILSRFKQFDLVELEKAKKIKFSDEHMAWTLYDYDIKKIN | -1.95
HMQFLKPQDVLFLLKLVVLKGPASIFPAVPESLGLSKAEVHNSAKRVRGARLLPHDSWNPLRKNLLEFL | -0.488
HMQFQVHEIKGKEYYIHVVEKGNTLYAISRMYSVPIETLKEENPRLNTTELTIGDRLLIPLDEVKRKNIE | -0.833
HMQFYSGLEARLMDPNTPEVFDDPISLMAFLQQKNISRVELEDNLLLPYLKEMAGQPIPKAELLEIIRK | -0.815
HMQGDHELSQRILSYLSEQGGSSPLTDKASPEEIYRIFRVSKKKYKQALGNLYKSKSIIILADKIQLL | -3.2
HMQGEDEILKIHEALEELAQIDARLVRVVEMRYFVGLSNQEIADSLGVTTRTVERDWEKARTFLFNALHP | -1.86
HMQGISGIERSLLDALAFEPAGLDALQARTGLDTPTLQALLMGLELQGHVARLPGSLFQRLVR | -0.9
HMQGVTVPDLTRVSLEEAVATISSLGLRYEISDRRSNAAFPANYVLDQAPGANTIVKPNRKVYLTVNAA | -0.162
HMQGWREWDYSADLYINARVGGKIEPTENSPISRVYELDEPVSVVAFTSTRYFKLSSGDYIFAEYLSAQKV | -4.29
HMQGYELKMYVTPDTKYSVAVYDAKNEMVSYTMGFSAKAPFGQEGEVLETVKLEFDKLAVGNYELKYWI | 0.258
HMQHYQFEVDEASSKKRLDVFLSENLPEISRSRLKKLIDEKRVTVNEMSRPAGYKVRVKEKIEFHIPPL | -0.718
HMQIAEAESLGQRLLQQSINNIVGRDEAITEERLNRVLSQYSLTGRDELMAQIGLGNRNSSLVAKAMYDI | -0.0772
HMQIKEVDYGTFISMTEDGEIGRVEIQQQENTILFTDEDETAVYKTAMVEDDQLTQRLYDAGISFYGEE | 0.0917
HMQILVEGVEANQRLDLFLRARLTEFSRSRIQGLVKNGNVLVNGNIARQAYLVQVGDKIELDVPEPVA | -0.603
HMQIMVVDEADRMLDMGFIPDIERIFQLTPFTRQTLFFSATMAPEIERITDTFLHSPERIEVAR | -0.255
HMQISDDGFILKIINEVVAENPKSISDYISGKEAAVGFLVGQIMKKTRGKANPKLVNEMLITELAKLKN | 0.0585
HMQISDESSIAKIADEVISEFPSQVSEFRSGKEKVLQFLIGQVMKKTKGKANPQITAKILREKLS | 0.00566
HMQISDSASVKTVVAEAIAANPKAVADFMNGKDTATRYLVGQVMKITKGQAKPELVNQLVLESLAELKEK | 0.361
HMQISDSGELEKIVLQVIEENPKPAEQVRSGNEKAIGALVGGVMKATQGRADGGEVNRLLRQHLGL | 0.248
HMQISDVSLIAKVIDDVIDNNVKSVSDYLEGNLNVLRFLVGQVMKETKGKANPQKATELLQEKLESLNN | -0.896
HMQISLDTKLINLEFSVRANNVFRENQIFTLRDLTSHSKEDLMLMTNFGKTTLYEVNKKLEEHQLKLSQ | -2.43
HMQISNEEELEKIIENVIESNPEKVKAYQSGKSGLIGFFMGQVMKESGGQANPNLVNQILKGKL | 0.109
HMQIYSQEIYDAQKVLKELGLYTSDLDGLNGPGTKRALRNFQSKSGLNADGVLGPLTKSALDKGEESYITV | -0.0827
HMQKADFDYGDYVDLGLAMGRQSRQLREAVGIKLGIGYANSKRFYQRLQTFGISLAELKQAVEEAENDQQN | -1.12
HMQKEMDIVLQINGKMRSNLKVSSTANDDEIIKTAIESDAYKKFSLGLRIQKTIIVPNRLINIVLEK | -3.24

Sequence | soluble fraction (log2)
HMQKIYTIARGDTLSHIVAGTLKQQGIAYTTGELYRLVNVVAQYNDILNPNRIYTGHQLDLTPLYSED | -0.15
HMQKLLGPFEDFVKIKLDKYPDTKAAQMHDWLKEHYPDFPEVTPKTVYNFVMYVRQRHNIPIPD | -0.359
HMQKTVLAASVYERMKERIMDQYYPPGERLNIDALAIDLAVSPTPIREALARLAAERLITFEAYKGYRVSP | -3.38
HMQLEPLVTSVIPVNFAKASDISGTIKGKEVGLLSERGNITAENRTNVLIVKDIRKSVDEINAMVKRLD | 0.0272
HMQLFKFKNAMMELAKNKNITLDTAEKAIGLEAGFTELVARGVKELALSDVIKISKYFNTTMDSVLD | -1.44
HMQLPFTPREHEITQLLSRGLSNRQIAEALSLSVRTVEGHIYQASTKLGISSRSELAVLVGQFA | -1.94
HMQLSQLLQPFDINAFKGHPLYTEENVKMFNDYTNRVKEWTKGTPYEQYWVTKEGQPTMLAWDSFKK | -1.28
HMQLTQEAIENLFKITTAKKFREELEKLVVTDSEKKAFAYFTVYHPKLKELPFAILKSVENYTGISI | -0.963
HMQLVPGIGRLSARELEVFTLIGRGLGTSEIGKKLGVSAYTVQTHRNHIKEKLNLPNAAAITYWAIQWAHG | -2.27
HMQMEDTDALLQVAKEVVAENQDTVEAYLGGREKAFASLIGAAMKKTRGKANPKVIRQLILDLIQ | 0.564
HMQMEISQRIKLERQTLKWTQEELADKIFVSKRTISNWETGRTVPDIESVLRLAKVFHVSLEDLLL | -4.46
HMQMEYEKAIAYILDKIKSGELSIGSKLPAERVIADTLHIGRNSTREALSILHGMGMVDRVHGSGNYISEH | -0.752
HMQMLQDPFLNALRKEHVPVSIYLVNGIKLQGQVESFDQYVVLLRNTSVTQMVYKHAISTIVPARAVSL | -0.748
HMQMRKENKILVTDIGEIDEVKVIFDDDNKPYLYSYNGEDEFYRPDETYKFFDNKEQAEEYVREN | 0.0692
HMQMSPREKMIYSFIESHPGTKSGEIAEKLNVPLPTVKRILSEMVSGNFIAKHGSGIGTNYSTEK | 0.335
HMQMSWDAVKARLQDIVNNEDKTKPFNDEMLASKLKEQGIEIARRTVVKYRQQLGIPAARLRKK | -0.752
HMQNAETPDVAAEFRTWTSADGQFQVIAKLVKLDGESVHLERQDDGRQIAVPLGKLSSEDRLFLRGVRP | -0.184
HMQNEQIAFSKFLQEVDSGRVVQVEIQGNNIKGILSDGSKFYTYSPNYPELVGKLSEKGVNIVASPVE | 0.196
HMQNFLSITSKEKIDIGNFQLISFKFENNLYDYVISGNKSELLIFQEKTIENNNENIEKITSNF | -2.54
HMQNLETVEEIKELALNYLDKYQPSKKSLQVYLFRKAIDAQSNSVEKSEILKKIETVLTDLEEQGILNDAL | -0.135
HMQNMVYVATKDIPAGGVIDQDSVSKTAISTSIDTSLYITDDDLGKIAVVNISQGQSVFSNMVGT | 0.656
HMQNNITISKEIELRTGPDDTYPTLKKVTAGDNVEMLSKSDTWYEIKTNDSFVGWVPGWSIL | -0.0886
HMQNSYSVEDLALKAGLSVDTIRYYQGLDLIAPPQKNGRRAIYGDEHLSRLDEIKKLALEGFSLRQISLLK | -0.739
HMQNYNLTQQEKKVLQLLVSGKSYKMIAAELNVAFDTVKSHITNIYSKLHVHSGTEAVSVAIRDKI | -1.46
